3 molecules from patent US20240343803A1 (SHANDONG SIMCERE BIOPHARMACEUTICAL, published 2024) can be followed below.

Assay [1] has as its target T1, cynomolgus monkey TIGIT ECD-mFc (extracellular domain of cynomolgus monkey TIGIT and mouse IgG2a Fc fragment) (cynomolgus monkey).
T1 construct: entry includes the signal peptide, limits not readable here
In words: ELISA. Here is the method: (§1) After discarding the coating solution, the plate was added with 5% skim milk powder (Sangon Biotech, CAT #A600669-0250)-PBS, 250 μL/well, and incubated at 37° C. for 2-4 hours. […] The enzyme-labeled plate was then washed with 0.05% Tween 20-PBS for 3 times on the Microplate Washer, added with tested antibodies diluted to 13 nM with 1% BSA (diluted by 3-fold serial dilution for 12 concentration points), 50 μL/well, and incubated at 37° C. for 1.5-2 hours. The plate was washed with 0.05% Tween 20-PBS for 3 times on the Microplate Washer, then added with HRP enzyme-labeled antibodies (Merck, CAT #AP113P) diluted with 1% BSA (Sangon Biotech, CAT #A500023-0100)-PBS at a dilution ratio of 1:5000, 50 μL/well, and incubated at 37° C. for 1 hour. After washing 3 times with 0.05% Tween 20-PBS on the Microplate Washer, the plate was added with TMB chromogenic solution (KPL, CAT #52-00-03), 50 μL/well, and incubated at room temperature for 7-10 minutes. 1M HCL, 50 μL/well, was then added into the plate to terminate the reaction, and the OD450 nm was read by a microplate reader (Biotek, Powerwave HT). […] (b) The binding activity of anti-TIGIT chimeric antibodies to CHO-K1 human TIGIT (cells with high, medium and low expression levels) and CHO-KI cynomolgus monkey TIGIT detected by FACS.
In general terms: In an ELISA, binding on a coated surface is turned into a signal by an enzyme label.

Assay [2] addresses T2, human TIGIT ECD-mFc (fusion protein of extracellular domain of human TIGIT and mouse IgG2a Fc fragment) (human).
T2 chain: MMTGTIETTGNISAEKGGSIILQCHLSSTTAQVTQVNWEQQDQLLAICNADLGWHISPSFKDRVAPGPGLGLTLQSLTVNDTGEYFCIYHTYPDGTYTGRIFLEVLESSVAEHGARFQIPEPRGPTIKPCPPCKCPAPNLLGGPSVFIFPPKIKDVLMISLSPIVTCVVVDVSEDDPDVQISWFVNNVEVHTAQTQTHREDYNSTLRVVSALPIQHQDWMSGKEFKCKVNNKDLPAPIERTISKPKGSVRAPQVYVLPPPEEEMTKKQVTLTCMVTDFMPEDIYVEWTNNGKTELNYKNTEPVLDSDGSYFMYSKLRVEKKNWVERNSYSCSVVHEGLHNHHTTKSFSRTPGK
Put plainly: ELISA. Here is the method: as §1

Assay [3] deals with T3, human PVRIG-his (AcroBiosystems, Cat NO. PVG-H52H4) (human, UniProt Q6DKI7 41-171, limits assumed).
T3 construct: treated as the same protein; also called human PVRIG-His protein; Human PVRIG-His, Acro C227P1-9ARF1-T4
T3 sequence (looked up): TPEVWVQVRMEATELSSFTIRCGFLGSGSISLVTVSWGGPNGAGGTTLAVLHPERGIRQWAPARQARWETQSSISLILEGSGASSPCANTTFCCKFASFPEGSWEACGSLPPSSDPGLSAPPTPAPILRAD
In words: competition ELISA on coated human PVRIG-his; blocked ligand human PVRL2-mFc. Here is the method:
The ELISA plate was pre-coated with 100 μL/well of 0.5 μg/mL human PVRIG-his protein (AcroBiosystems, Cat NO. PVG-H52H4). The tested anti-PVRIG antibodies were diluted from the highest concentration of 16 nM (two-fold concentration). The diluted antibodies were mixed with 18 ng/ml human PVRL2-mFc (AcroBiosystems, Cat NO. CD2-H5257) in equal volume, added into the plate (100 μL/well), and incubated with shaking at room temperature for 2.0 hours. […] A HRP substrate, TMB (Thermo, Cat NO. 34029) was added into wells after washing the plate again for color development. After adding a termination solution to terminate the reaction, the absorbance value was read by a microplate reader (MD i3×). An inhibiting curve was drawn with concentration of antibodies as the abscissa and the corresponding OD value as the ordinate. The IC50 value was calculated by using a Four Parameter Logistic Fit (GraphPadPrism9). The smaller the IC50 value, the stronger the ability of the antibodies inhibits the binding between PVRIG and PVRL2. The positive and negative controls are the same as in Example 8.
The methods refer to Example 11. The inhibiting activity of the humanized antibodies was normalized to the corresponding parental antibodies. If the percentage value is higher than 100%, the inhibiting effect of humanized antibodies is better than that of parental antibodies.

Assay [4] concerns the target T4, cynomolgus monkey PVRIG on FlpinCHO-cyno PVRIG cells (cynomolgus monkey, UniProt A0A2K5WVV8 41-322).
T4 construct: whole, on cells; also called FlpinCHO-cynomolgus monkey PVRIG
T4 sequence: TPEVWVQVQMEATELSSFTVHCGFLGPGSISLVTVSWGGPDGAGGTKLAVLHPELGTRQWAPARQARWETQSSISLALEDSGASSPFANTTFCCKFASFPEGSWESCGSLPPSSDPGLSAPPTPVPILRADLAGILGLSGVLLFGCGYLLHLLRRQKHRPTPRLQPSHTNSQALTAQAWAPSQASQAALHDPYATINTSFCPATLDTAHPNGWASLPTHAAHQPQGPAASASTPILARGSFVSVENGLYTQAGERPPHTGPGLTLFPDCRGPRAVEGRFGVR
Put plainly: FACS, FlpinCHO-cyno PVRIG cells. (In general: A flow cytometer gives signals particle by particle.)

The target of assay [5] is T3, human PVRIG-his (AcroBiosystems, Cat …). In words: ELISA, coated human PVRIG-his.

B1: RG6058-hIgG1 (antibody, V domains shown)
VH: EVQLQQSGPGLVKPSQTLSLTCAISGDSVSSNSAAWNWIRQSPSRGLEWLGKTYYRFKWYSDYAVSVKGRITINPDTSKNQFSLQLNSVTPEDTAVFYCTRESTTYDLLAGPFDYWGQGTLVTVSS
VL: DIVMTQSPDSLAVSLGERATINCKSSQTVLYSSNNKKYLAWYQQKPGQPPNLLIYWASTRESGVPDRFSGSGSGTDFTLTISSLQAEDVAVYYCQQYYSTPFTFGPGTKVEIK
notes: human IgG1 format by its name; also called Roche RG6058; control antibody RG6058
For the molecule B1, the values for the EC50 in assay [1] and in assay [2] were 0.0158 nM and 0.0151 nM, respectively.

B2: PVRIG-A105 (VHH)
VHH: EVQLVESGGGLVQAGGSLRLSCAASGRTFDRHTMTWFRQAPGKEREFVATASRIPGDTYYSHSVKGRFTISRDNAKNTVYLQLNNLKPEDTAVYYCAATSAYCSEVDCYEKGSWYDNWGQGIQVTVSS
notes: tested as VHH-hinge-CH2-CH3 (human IgG1-Fc); not shown: human IgG1 hinge-CH2-CH3
As to B2, in assay [3], the “IC50 (read off the curve)” value is around 0.7 nM.

B3: SRF813-hIgG1 (antibody, V domains shown)
VH: QVQLVQSGAEVKKPGSSVKVSCKASGGTFSSAAISWVRQAPGQGLEWMGNIIPIVGIANYAQKFQGRVTITADESTSTAYMELSSLRSEDTAVYYCARDTGRGYTRHFWFDPWGQGTLVTVSS
VL: DIQMTQSPSSLSASVGDRVTITCRASQSISSYLNWYQQKPGKAPKLLIYAASSLQSGVPSRFSGSGSGTDFTLTISSLQPEDFATYYCQQSDILYTFGGGTKVEIK
notes: human IgG1 format by its name
Regarding B3, the EC50 (read off the curve) – broadly, the concentration needed to bring the measured effect to its halfway point – in assay [4] is 1 to 1.4 nM; in assay [5] it was around 0.05 nM.
